Legend:
[1] = system: PD-L1 surface expression on monocytes; assay: PD-L1 surface expression on human monocytes from PBLs, flow cytometry; format: cell-based; conditions: for IL-25-mediated induction of PD-L1 in human primary monocytes: inhibitor pretreatment (WP1066 2.5 μM; SP600125 25 μM; PD98059 20 μM; LY294002 10 μM; Akt inhibitor III 10 μM), then 100 ng/ml rhIL-25 for 18 hours
Description: FIG. 9. IL-25-mediated PD-L1 expression in human monocytes and hMSCs is mediated through JNK and STAT3 with STAT3 involved in transcriptional control of PD-L1. (A) Human PBLs were pretreated with inhibitors of STAT3 (WP1066; 2.5 μM), JNK (SP600125; 25 μM), or MEK1 (PD98059; 20 μM) prior to 100 ng/ml rhIL-25 for 18 hours, with subsequent flow cytometric analysis for PD-L1 surface expression on monocytes, gated using FSC and SSC. Filled histograms represent isotype control. Unfilled histograms represent PD-L1 antibody staining. Pooled data (3 donors) provided in (B) with bars representing MFI. hMSCs were treated with inhibitors of (C) STAT3 (WP1066; 2.5 μM) and (D) JNK (SP600125; 25 μM) for 6 hours, and subsequently assessed by flow cytometric analysis for PD-L1 surface expression. Pooled data (all 3 donors) for each respective inhibitor provided (left charts) with bars representing MFI. (D) Putative GAS elements (STAT-binding sites) in the proximal promoter region of human PD-L1 gene; 700 bp region upstream from the transcription start site), as determined with TFSearch web-based software. (E) Binding of STAT3 or IgG (negative control) in hMSCs was analyzed by chromatin immunoprecipitation (ChIP) with promoter-specific primers for region 1 and region 2. The input samples (positive control) represent 1% starting chromatin. (F) Schematic of model of hMSC-mediated suppression of Th17 responses involving IL-25/STAT3/PD-L1 axis.
FIG. 10. Involvement of signal pathways for IL-25-induced expression of PD-L1 in human peripheral blood monocytes. (A) Pooled data (3 donors) of PD-L1 expression (shown as MFI) after MEK inhibition. (B) Human peripheral blood monocytes were pretreated with inhibitors of PI3K (LY294002; 10 μM) or Akt (Akt inhibitor III; 10 μM), followed by 100 ng/ml IL-25 stimulation. After IL-25 treatment for 18 hours, the expression of PD-L1 was assessed by cell surface staining. Pooled data (3 donors) provided in (C) of PD-L1 expression (shown as MFI). A.U., arbitrary units. […]

[2] = system: PD-L1 surface expression on hMSCs; assay: PD-L1 surface expression on hMSCs, flow cytometry; format: cell-based, human
Description: FIG. 7. IL-25 induces PD-L1 surface expression on hMSCs and human monocytes. (A) PD-L1 in siCtrl MSCs (left panel) and siPD-L1 MSCs (right panel) was analyzed by surface staining. (B) Freshly isolated human PBLs were co-cultured without (left panels) or with siCtrl MSCs (middle panels) or siPD-L1 MSCs (right panels) for 3 days, followed by PMA/ionomycin stimulation for 6 hours. IL-17A production in CD3^+ T cells was assessed by intracellular staining. Representative data shown with numbers in the top right quadrants representing the percentages of IL-17A-producing CD3^+ T cells. Pooled data from PBLs (n=4) and 2 hMSC donors (donors A & B) are provided in (C). Folds of reversed phenotypes of silL-25 and siPD-L1 are provided in (D). (E) PD-L1 expression on siCtrl hMSCs (left panel) and silL-25 hMSCs (right panel) was assessed by cell surface staining Filled histograms represent isotype control. […] Pooled data provided in (F) of PD-L1 expression (indicated by fold-change in mean fluorescence intensity; MFI) on silL-25-hMSCs and siPD-L1-hMSCs (all 3 donors). […] (G) hMSCs were treated with indicated doses of rhIL-25 for 18 hours and assessed for cell surface PD-L1 expression by cell surface staining. […] (H) Human PBLs were treated with indicated doses of rhIL-25 for 18 hours, and assessed for cell surface PD-L1 expression on monocytes, gated using FSC and SSC, by flow cytometric analysis. […]

[3] = system: myeloid-derived suppressor cells (MDSCs) in peripheral blood leukocytes; assay: Expansion of CD14-CD11b+CD33+ MDSCs from human PBLs by IL-25; format: cell-based; conditions: allogeneic PBL (2 donors), various doses of IL-25
Description: FIG. 11. IL-25 expands […] myeloid-derived suppressor cells (MDSCs) in peripheral blood leukocytes (PBLs). Expansion of CD14^−CD11b^+CD33^+ cells from human PBLs by recombinant human IL-25. Allogeneic PBL (2 donors) were cultured alone or with addition of various doses of IL-25 as indicated. PBL were first gated on forward scatter (FSC)/side scatter (SSC) (R1) then analyzed for CD14^− and CD11b^+ (R2), and further analyzed for CD33^+ (R3, cell percentages denoted).
To further confirm that IL-25 can induce expansion of MDSCs from peripheral blood, Allogeneic PBL (2 donors) were cultured alone or with addition of various doses of IL-25 as indicated (FIG. 11). The treated cells were first gated on forward scatter (FSC)/side scatter (SSC) (R1) then analyzed for CD14^− and CD11b^+ (R2), and further analyzed for CD33^+ (R3, cell percentages denoted).

[4] = system: IL-17A production in CD3+ T cells; assay: IL-17A production in CD4 T cells treated with rhIL-25, intracellular staining; format: cell-based, human; conditions: rhIL-25 alone for 18 hours, then PMA/ionomycin 6 hours
Description: FIG. 6. […] (A) Human CD4 T cells were treated with indicated doses of recombinant human IL-25 (rhIL-25) for 18 hours, followed by PMA/ionomycin stimulation for 6 hours. IL-17A production in CD3^+ T cells was assessed by intracellular staining. Numbers in the top right quadrants represent the percentages of IL-17A-producing CD3^+ T cells; (B) pooled data of 5 PBL donors. (C) Human CD4 T cells (n=4) were co-cultured without or with hMSCs (2 donors: B & C) in the absence or presence of transwell barriers. Pooled data from healthy donors are provided in (D). Data are shown as means±SD. **, p<0.01; n.s., not significant. […]
Cells were stained with antibodies as indicated: anti-human IL-25-PE (R&D Systems), mouse IgG1 isotype control-PE (R&D Systems), anti-human CD3-PE/Cy5 (BioLegend), anti-human CD4-PE (BioLegend), anti-human IL-17A-PE (eBioscience), anti-human IFN-γ-FITC (BioLegend), anti-human IL-22-PE (eBioscience), anti-human FOXP3-Alexa Fluor 488 (BD Pharmingen), anti-human CD274 […]-PE (eBioscience), mouse IgG1 isotype control-PE (eBioscience), anti-human IL-25R-PE (R&D Systems), and mouse IgG2b isotype control-PE (R&D Systems), anti-mouse CD4-APC (eBioscience), anti-mouse CD3e-PE/Cy5 (eBioscience), and anti-mouse/rat IL-17A-PE (eBioscience). Data was collected on BD FACSCalibur™ (BD Biosciences) instruments and analyzed with Cell Quest Pro software (BD Biosciences).

## COc1cccc(-c2cc(=O)c3ccccc3o2)c1N [PD98059]
[1]
  IL-25-mediated induction of PD-L1 in human primary monocytes: minimal effect

## C[C@H](NC(=O)/C(C#N)=C/c1cccc(Br)n1)c1ccccc1 [WP1066, reference compound]
[2]; inhibitor for 6 hours (WP1066 2.5 μM; SP600125 25 μM)
  PD-L1 expression in hMSCs: strongly reduced
[1]
  IL-25-mediated induction of PD-L1 in human primary monocytes: substantially abolished

B1: rhIL-25: Human recombinant IL-25 (PeproTech); IL-25 also known as IL17E (protein, UniProt Q9H293 33-177, looked up)
Interleukin-25: YSHWPSCCPSKGQDTSEELLRWSTVPVPPLEPARPNRHPESCRASEDGPLNSRAISPWRYELDRDLNRLPQDLYHARCLCPHCVSLQTGSHMDPRGNSELLYHNQTVFYRRPCHGEKGTHKGYCLERRLYRVSLACVCVRPRVMG
[2]; exogenous rhIL-25, indicated doses, 18 hours
  surface expression of PD-L1 on hMSCs: further upregulate surface expression of PD-L1 on hMSCs but not to a significant extent
[1]; human PBLs treated with rhIL-25, indicated doses, 18 hours, dose-dependent
  PD-L1 expression in monocytes: dramatically and significantly increased
[3]
  expansion of MDSCs in PBLs: expands
[4]
  suppression of Th17 responses (IL-17A in CD4 T cells): failed to suppress Th17 responses to a significant extent

From patent publication US20170246212A1, “METHODS TO UPREGULATE AND SUPPRESS AN EXPRESSION OF IMMUNOMODULATORY CELLS” (National Health Research Institutes, priority 2014, published 2017)
